Consider one molecule from paper PMC3154886 (Molecular Biology of the Cell, 2011).

This assay addresses Human EB3 (end-binding protein 3) (human, UniProt Q9UPY8 1-281). Kind of assay: cross-linking.

Human EB3 (end-binding protein 3), sequence (Q9UPY8 whole entry): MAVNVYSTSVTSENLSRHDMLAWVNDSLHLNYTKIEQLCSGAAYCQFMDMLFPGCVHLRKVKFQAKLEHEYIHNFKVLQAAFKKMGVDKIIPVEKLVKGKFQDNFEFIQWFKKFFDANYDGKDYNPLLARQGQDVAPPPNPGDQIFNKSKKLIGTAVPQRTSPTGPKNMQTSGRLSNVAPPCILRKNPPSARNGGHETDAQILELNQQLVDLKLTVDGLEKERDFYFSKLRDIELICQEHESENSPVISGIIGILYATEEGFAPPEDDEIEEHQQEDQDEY

B1: Human EB1 (end-binding protein 1) (natural protein)
chain: MAVNVYSTSVTSDNLSRHDMLAWINESLQLNLTKIEQLCSGAAYCQFMDMLFPGSIALKKVKFQAKLEHEYIQNFKILQAGFKRMGVDKIIPVDKLVKGKFQDNFEFVQWFKKFFDANYDGKDYDPVAARQGQETAVAPSLVAPALNKPKKPLTSSSAAPQRPISTQRTAAAPKAGPGVVRKNPGVGNGDDEAAELMQQVNVLKLTVEDLEKERDFYFGKLRNIELICQENEGENDPVLQRIVDILYATDEGFVIPDEGGPQEEQEEY
Consider B1, for which the binding result is given as “binds”.
